The record followed here is the RNAGym collection of RNA variant scans (doi:10.1073/pnas.2313332121).

The labels stand for the following.
B1: TPR t1 (parent)
chain: GACCAAUCUGCCCUCAGAGCUCGAGAACAUCUUCGGAUGCAGAGGAGGCAGGCUUCGGUGGCGCGAUAGCGCCAACGUCCUCAACCUCCAAUGCAUCCCACCACAUGAUGAUGCCUGAAGAGCCUUGGUUUUUUG

The data set covers variants of B1. In words: polymerase ribozyme fitness, log enrichment relative to wild type (log ratio); higher = more active; in vitro selection for triplet polymerase activity. The essentials:
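Mutant libraries for each subunit of a heterodimeric triplet polymerase ribozyme were made by PCR and then transcribed. Each library underwent one round of in vitro selection in triplicate: annealing with a biotinylated primer, the partner subunit and triplets, frozen incubation at −7 °C, gel excision of extended constructs, streptavidin-bead capture and RT-PCR. Input and output libraries were Illumina-sequenced, and only genotypes with ≥10 input reads and ≥1 read per output were kept. Fitness is the logarithm, base 2, of genotype enrichment over wild-type enrichment, computed from inverse-variance-weighted replicate averages.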
C8G C28A C72A: the “polymerase ribozyme fitness (log ratio)” value was -4.41. Then C8A G17A U54A G71U C94A, with -4.99. The same measure for C8G G45U G63C A83U A91C U112A: -1.6; for C8G C82A G117U: 0.587. As for C8G C15A G69A C89G, the “polymerase ribozyme fitness (log ratio)” value is -5.71. The same measure for C8A C12U A90U G117C: -0.863. Then C8G G113U, with -1.24; and C8G A37U G44A G60C C115A, with -0.0408; and C8G C28A, with -3.24. Then C8G C28G, with -2.05.

As for C8G G58A C70U U96A, the “polymerase ribozyme fitness (log ratio)” value was -1.13. The same measure for C8A C22G G61U A121U: -1.38; for C8G C56A: 0.399. The same measure for U7G G93C: -0.742; for C8A C12G U14C C73U G77C C101A: -1.62; for U7G U54C U55G: 0.467. For the variant C8G G71C, the “polymerase ribozyme fitness (log ratio)” value is -0.095. The same measure for C8G G71U: 0.189.

C8G G71A: the “polymerase ribozyme fitness (log ratio)” value turned out to be 0.0703.

Consider C8U A26U C49G C79U G93A, for which the “polymerase ribozyme fitness (log ratio)” value was -4.36.

C8G C56A U78C G93A C123U: the “polymerase ribozyme fitness (log ratio)” value worked out at 1.31. Then C8G U78A G113U C115A G120C, with -2.48. The same measure for C8G C20U G69U C101U: -1.07; for C8G C72A: 0.366; for C8G C89A A105C: -4.02. Then C8A A27G C56U C62U, with -1.49; and C8A C31A, with -5.54. For U7G G48C C89A, the “polymerase ribozyme fitness (log ratio)” value is -2.97.

Take C8A G19U G44U C97U: the “polymerase ribozyme fitness (log ratio)” value was -3.97. C8A C79A: the “polymerase ribozyme fitness (log ratio)” value was -0.182. Then C8A C79G, with -1.65.

Consider C8G G107U G113A, for which the “polymerase ribozyme fitness (log ratio)” value was -3.41. Then C8G G10C G23C G25A G60C C88G G110A, with -7.14. In the case of U7G U32G C73A C98A, the “polymerase ribozyme fitness (log ratio)” value was -4.14. Consider C8A C56A C102A A103U, for which the “polymerase ribozyme fitness (log ratio)” value is -3.2. Then C8A G63A, with -0.863; and C8A C28U G48C G57U G127C, with -3.86.

As for C8G G44U, the “polymerase ribozyme fitness (log ratio)” value is -0.116. As for C8A G36U U132A, the “polymerase ribozyme fitness (log ratio)” value was -1.09. With C8G C13A A18G C53A C88A U125G, the “polymerase ribozyme fitness (log ratio)” value was -3.4. As to C8G G23U A24U A41C G60U C86G C101A G120A, the “polymerase ribozyme fitness (log ratio)” value is -7.63.

For C8G A50U, the “polymerase ribozyme fitness (log ratio)” value was -0.104. Then C8G U78C A105C, with -2.32. The same measure for U7G C15G C49G U112G: -1.33; for C8G C79A: -0.929; for U7G G63U C88U G93C: -2.75.

In the case of C8G C13G A16U C49A C70U U129C, the “polymerase ribozyme fitness (log ratio)” value is -1.75.

Consider C8G U87C A105C C124G, for which the “polymerase ribozyme fitness (log ratio)” value came to 0.541. The same measure for U7G G39A G58A G69U C97U: 0.0234; for U7G C53A A91U C101G: -4.34; for C8A A43U: -1.01. On to C8G G48U G61U G93U U112A C124A, for which the “polymerase ribozyme fitness (log ratio)” value was -0.568. The same measure for C8A C72G U133G: 0.138; for U7G C13U A26G G48A C49U G52A A75C: -3.14. The same measure for U7G G51C C115U: -5.78; for C8A G36U C49G G71U: -1.2; for C8A U112A C123A: 1.22. Then C8A C12A G39A, with -0.403. In the case of C8G C11U U21C C34U, the “polymerase ribozyme fitness (log ratio)” value is -3.99. Then U7G G63A C86G C94A G113U, with -5.43; and U7G C49A C123U, with 0.939; and U7G C22U G42A G47C G60C U87G U92C, with -7.02. The same measure for C8G A46U A91U G117C: -2.28.

C8G G122A: the “polymerase ribozyme fitness (log ratio)” value worked out at 0.556. For the variant C8A U130G U132A, the “polymerase ribozyme fitness (log ratio)” value was -2.74.

As to C8A U9G G39C G69A U78C U92G U106A, the “polymerase ribozyme fitness (log ratio)” value was -7.09. For C8A G42U G44A C114U, the “polymerase ribozyme fitness (log ratio)” value is -1.01.

Consider C8G A26G C86G U109C, for which the “polymerase ribozyme fitness (log ratio)” value is -5.29. Then C8G C12U G63A G122A C123U, with 0.85. Then C8G C20U G52U C62A, with -2.37; and C8G A16C C62U C94A U112G U130C, with -1.66. In the case of C8G C15U G19A U125A, the “polymerase ribozyme fitness (log ratio)” value is -2.55. As to C8A G57U A66G C76U A90U, the “polymerase ribozyme fitness (log ratio)” value is -4.82. The same measure for C8A G48U C53A C62U C82U U106A A108G: -1.01; for C8G G10A A16C A95U G122U: -0.858; for C8G G35C C89U: -4.98. The same measure for C8A C22U G57C A75U C97U C102G: -6.66; for C8A C124G: 1.76. Turning to U7G C89A U116A G117A, the “polymerase ribozyme fitness (log ratio)” value was -2.89. With C8G C20U C49U, the “polymerase ribozyme fitness (log ratio)” value is -1.11.

For U7G G10A G19U G113A, the “polymerase ribozyme fitness (log ratio)” value was -1.32. Consider C8G G19A C76A, for which the “polymerase ribozyme fitness (log ratio)” value is -3.65. The same measure for C8A G117C: -2.07; for C8G C20G C34U U112A: -5.8.
